Target: MITF wild-type (DNA-binding fragment) (UniProt Q95MD1 112-207)
Test: EMSA; 5 mM MgCl2; 20 mM Tris, 50 mM NaCl, 5 mM MgCl2, 1 mM DTT, 33 ug/ml BSA, pH 7.4, on ice 30 min; 6% native PAGE in 0.5x TBE
Details: protein: recombinant; (Ni-NTA purified); chain copies: 2; label: radioactive label

Sequence of MITF wild-type (DNA-binding fragment) (Q95MD1 entry or part of it): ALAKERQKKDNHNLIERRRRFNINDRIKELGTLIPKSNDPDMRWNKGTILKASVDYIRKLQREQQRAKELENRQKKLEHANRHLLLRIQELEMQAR

B1: M-box oligonucleotide (dsDNA)
DNA 1: GGAAAGTTAGTCATGTGCTTTTCAGAAGA
DNA 2: TCTTCTGAAAAGCACATGACTAACTTTCC
B1: binds.

Source: article PMC3325211, “Mutations in MITF and PAX3 Cause “Splashed White” and Other White Spotting Phenotypes in Horses”
